The source of these data is patent publication US8277440B2, “Implantable device for controlled, extended delivery of parathyroid hormone” (MicroCHIPS, Inc., priority 2002, dated 2012).

Series [1] in a line: Solubility of PTH as a function of pH. The format is physicochemical. An excerpt: While not being bound by any theory, it is believed that this phenomena was due to the salts (e.g., MW ˜60) in the PTH solution diffusing into the physiological solution at a rate that exceeded the rate of diffusion of the PTH (e.g., MW ˜4000) due, for example, to the molecular weight (MW) dependence of diffusion rate, to such an extent that the pH of the PTH solution increased to a point exceeding that required to keep the PTH in solution. (For example, at pH 3, the PTH has a solubility of about 100 μg/ml and at pH 7, the PTH has a solubility of about 20 μg/ml.)

For another series, the system named is skeletal homeostasis. The note with it: cited from earlier work.

parathyroid hormone [PTH]: the solubility entry in series [1] (pH 3) was “about 100 μg/ml”. The solubility entry in series [1] (pH 7) was “about 20 μg/ml”. Also, the bone volume result with skeletal homeostasis (daily dose given as one single injection) is on record as “dose dependent increase”. Also, in the series on skeletal homeostasis (in vivo), the “effect on serum calcium” value is reported as “dose dependent increase” and the “effect on serum calcium levels” value was “practically no effect”. In addition, the result on bone in the series on skeletal homeostasis (same daily dose by continuous infusion with subcutaneous mini-osmotic pump) was “bone loss”.
